The values below come from PMC5234850 (Cell reports, 2017).

Assay [1] addresses human Mre11 core (2-411aa), N-terminal his-tagged (human) (UniProt P49959). The assay can be described thus: SEC. On the technique in general: Size exclusion chromatography separates by hydrodynamic size, large species first.
Assay [2] concerns the target T1, human Mre11 core (2-411aa), N-terminal his-tagged (human, UniProt P49959 2-411).
T1 sequence (looked up): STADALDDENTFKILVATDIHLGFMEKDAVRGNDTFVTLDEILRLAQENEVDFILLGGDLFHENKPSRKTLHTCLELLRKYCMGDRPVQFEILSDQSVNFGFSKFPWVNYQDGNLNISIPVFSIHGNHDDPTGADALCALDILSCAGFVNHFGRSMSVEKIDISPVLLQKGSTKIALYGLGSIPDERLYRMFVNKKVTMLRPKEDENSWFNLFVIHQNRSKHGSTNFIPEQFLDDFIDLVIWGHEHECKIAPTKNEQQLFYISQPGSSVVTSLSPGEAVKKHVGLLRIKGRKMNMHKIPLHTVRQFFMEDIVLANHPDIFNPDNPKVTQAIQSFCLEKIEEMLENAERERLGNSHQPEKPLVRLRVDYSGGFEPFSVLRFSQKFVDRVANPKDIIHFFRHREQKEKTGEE
As to the kind of experiment: SEC.

The term stoichiometry N denotes the number of molecules, sites or subunits per partner or assembly.

“human Mre11 core (2-411aa), N-terminal his-tagged (from UniProt P49959 2-411) (domain or fragment)” returned a stoichiometry N in assay [1] of 2.

B1: human Nbs1 F4 (622-729aa) fused to maltose binding protein (domain or fragment, UniProt O60934 622-729, looked up)
chain: KKRELKEDSLWSAKEISNNDKLQDDSEMLPKKLLLTEFRSLVIKNSTSRNPSGINDDYGQLKNFKKFKKVTYPGAGKLPHIIGGSDLIAHHARKNTELEEWLRQEMEV
For the molecule B1, the binding result in assay [2] is “binds”.
